This series deals with Maltose binding protein (MBP) (UniProt P0AEX9 27-396). Briefly: ELASA; 500 nM aptamer; PBS (137 mM NaCl, 2.7 mM KCl, 10 mM Na2HPO4, 1.8 mM KH2PO4, pH 7.4); ELASA 30 min at 4 C after 3% BSA block; sandwich capture in PBS, temperature not stated.

B1: A-aptamer-ELASA (modified B11) (ssDNA)
DNA: TTCTTTTATTAGTTGATTTTTTTGATTTTGGCAGCTACTGCTTTGGGGGTGCTGAGGCGAAGGACGCAGATGAAGTCTC
modifications: 3' biotin
As to B1, the binding result is “no binding”.
